Measurements reported in US9259432B1, “Composition and methods for targeted delivery of a therapeutic compound to the brain or spinal cord of a subject for treatment of neurodegenerative diseases” (Parminder J. S. Vig, priority 2011, dated 2016).

What was measured:
Type in all cases: cell-based
[1] = test system: differentiated GFP-ATXN1[82Q] SHSY5Y cells; assay: Oxyblot of S100B induced oxidized proteins; details: 5 μM S100B 2 hrs; compared to GFP-ATXN1[30Q] cells
Method: FIG. 16: (a) GFP-ATXN1[82Q] and (b) GFP-ATXN1[30Q] SHSY5Y stable cells were placed on 12-well plates and subjected to treatment with 25 nM TPA for 3 days to produce differentiated SHSY5Y cell lines. Next, the cells were pretreated with 50 μM Synb1-ELP-TRTK for 1 hr then treated with 5 μM S100B for 2 hrs or treated with 150 μM H2O2 for 2 hrs, where control cells were treated with serum free media for 3 hrs. Then the cells were lysed and analyzed with the Oxyblot kit and a β-tubulin antibody. Shown is the resulting oxyblot/western blot data. (c) Optical densities of the protein bands were taken using ImageJ software. Graphs shown the ratio of oxidized protein/β-tubulin protein normalized to the control. Statistics were taken using the student's t-test. * GFP-ATXN1[82Q]: S100B vs Synb1-ELP-TRTK+S100B, P<0.05. ψ GFP-ATXN1[82Q]: H2O2 vs GFP-ATXN1[30Q]: H2O2, P<0.05.
GFP-ATXN1[82Q] or GFP-ATXN1[30Q] stable cells were placed on 12-well plates at a concentration of 60,000 cells per well. Cells were treated with 25 nM TPA for 3 days to produce differentiated SHSY5Y cell lines. […] Cell lysates were analyzed with the Oxyblot kit according to manufacturer's protocol ([…]) and with a β-tubulin antibody (Sigma), where 5 μgs of protein was loaded in each well of 4-20% acrylamide gel (Bio-Rad Laboratories, Hercules, Calif., USA). […]

[2] = test system: differentiated GFP-ATXN1[82Q] SHSY5Y cells; assay: Neurite changes after S100B treatment, mutant ataxin-1 cells; details: 3.0 μM S100B 48 hrs, vs untreated
Method: FIG. 15: GFP-ATXN1[82Q] SHSY5Y stable cells were placed on 2-well slides and subjected to treatment with 25 nM TPA for 3 days to produce differentiated SHSY5Y cells. Next, slides were fixed and probed with (a &b) GFP, (a) Synaptophycin and (b) RAGE antibodies and fluorescent secondary antibodies Alexa 488 and Alexa 546 followed by DAPI staining. Scale Bars: […]. Differentiated SHSY5Y cells were treated with 3.0 μM S100B for 48 hrs and neurite changes were visualized under the microscope. (c) Data is shown as MEAN±STDEV of the percentage of cells with neurites, n=100. (d) Data is shown as MEAN±SE of neurite length, n=100. Statistics were taken using student's t-test. *P<0.05.
SHSY5Y cells (Invitrogen, Carlsbad, Calif., USA) were maintained in DMEM/F12 media (Fisher, Houston, Tex., USA) supplemented with 15% FBS, penicillin-streptomycin (Sigma), and grown in an incubator at 37° C. in the presence of 5% CO2. S100B was labeled with Alexa 488 labeling kit (Invitrogen) to produce 488-S100B. […] Next, cells were washed then treated with 1 μM 488-S100B for 3 hrs and S100B uptake was analyzed by Epi-fluorescence or by Beckman Cytometric FC 500 flow cytometer as previously described (Bidwell et al., 2009). For flow cytometry experiments, 488-S100B uptake was measured by quenching extracellular fluorescence by coating the cells with Trypan Blue (Fisher) as described previously (Bidwell et al., 2009). […]

[3] = test system: differentiated GFP-ATXN1[30Q] SHSY5Y cells; assay: Neurite changes after S100B treatment, normal ataxin-1 cells; details: 3.0 μM S100B 48 hrs, vs untreated

B1: S100B: glial secreted EF-hand calcium binding protein, purchased from Sigma-Aldrich; applied to cells as neurotoxic stimulus (protein, UniProt P04271 2-92, looked up)
Protein S100-B: SELEKAMVALIDVFHQYSGREGDKHKLKKSELKELINNELSHFLEEIKEQEVVDKVMETLDNDGDGECDFQEFMAFVAMVTTACHEFFEHE
- level of oxidized proteins after S100B treatment [1]: greater level of oxidized proteins
- neurite length [2]: significantly reduced
- percentage of cells with neurites [2]: significant reduction
- effect on neurites (percentage of cells with neurites, neurite length) [3]: no significant effect
